Measured values as given in patent US20190367631A1.

What was measured:
[1] = target: endogenously expressed human MSR1 on PMA-treated THP-1 cells (human) (UniProt P21757); experiment: confocal imaging, differentiated THP-1 cells, Alexa 488 secondary
[2] = target: endogenously expressed human MSR1 on PMA-treated THP-1 cells (human) (UniProt P21757); experiment: cell-based or functional assay
[3] = target: human MSR1 extracellular domain expressed with a N-terminal nonahistidine tag (human) (UniProt P21757); experiment: competition ELISA, plate-coated His9-hMSR1; 1 µM control antibody, competitor ligand 10 nM Ox-LDL
Sequence of human MSR1 extracellular domain expressed with a N-terminal nonahistidine tag (human) (P21757 other isoform, or with tags, fused parts or gaps): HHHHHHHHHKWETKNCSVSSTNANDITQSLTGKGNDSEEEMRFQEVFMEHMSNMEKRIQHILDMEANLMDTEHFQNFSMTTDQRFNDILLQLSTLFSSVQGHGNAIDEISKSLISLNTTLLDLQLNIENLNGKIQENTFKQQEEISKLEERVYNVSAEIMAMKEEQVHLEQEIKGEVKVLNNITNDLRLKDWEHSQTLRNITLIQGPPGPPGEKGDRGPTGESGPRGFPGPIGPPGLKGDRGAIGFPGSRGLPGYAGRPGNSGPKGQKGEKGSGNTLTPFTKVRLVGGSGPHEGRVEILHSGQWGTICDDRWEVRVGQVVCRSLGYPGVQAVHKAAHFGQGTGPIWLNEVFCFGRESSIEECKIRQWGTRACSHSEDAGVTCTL

[4] = target: human MSR1 extracellular domain expressed with a N-terminal nonahistidine tag (human) (UniProt P21757); experiment: competition ELISA, plate-coated His9-hMSR1; 300 nM control antibody, competitor ligand biot-AGE-BSA
[5] = target: human MSR1 extracellular domain expressed with a N-terminal nonahistidine tag (human) (UniProt P21757); experiment: competition ELISA, plate-coated His9-hMSR1; 100 nM control antibody, competitor ligand Ac-LDL
[6] = target: full length human MSR1 with a C-terminal Myc tag, on HEK293.Myc.hMSR1 cells (human) (UniProt P21757); experiment: ECL cell binding, HEK293.Myc.hMSR1 cells, 11 nM
Sequence of full length human MSR1 with a C-terminal Myc tag, on HEK293.Myc.hMSR1 cells (human) (P21757 whole entry): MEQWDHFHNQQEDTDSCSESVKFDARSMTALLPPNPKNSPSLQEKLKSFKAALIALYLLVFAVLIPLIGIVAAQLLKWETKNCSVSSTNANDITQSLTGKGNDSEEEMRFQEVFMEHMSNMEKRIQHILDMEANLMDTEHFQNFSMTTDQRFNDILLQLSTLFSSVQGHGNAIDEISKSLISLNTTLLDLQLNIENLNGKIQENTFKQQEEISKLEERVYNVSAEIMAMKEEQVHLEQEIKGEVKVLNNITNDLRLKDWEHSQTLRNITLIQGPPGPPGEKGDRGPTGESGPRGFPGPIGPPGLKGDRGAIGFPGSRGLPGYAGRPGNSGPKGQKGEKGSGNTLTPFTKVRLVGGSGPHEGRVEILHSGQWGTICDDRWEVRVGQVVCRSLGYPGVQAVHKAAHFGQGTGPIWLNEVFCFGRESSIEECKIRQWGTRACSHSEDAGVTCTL

[7] = target: endogenously expressed human MSR1 on PMA-treated THP-1 cells (human) (UniProt P21757); experiment: ECL cell binding, PMA-treated THP-1 cells, 11 nM

Sequence of endogenously expressed human MSR1 on PMA-treated THP-1 cells (human) (P21757 whole entry, the tested form may be a part): as the sequence (P21757 whole entry) above

Substance	% Blocking [3] [%]	% Blocking [4] [%]	% Blocking [5] [%]	ratio of binding signal (RLU) to isotype control [6] [fold]	ratio of binding signal (RLU) to isotype control [7] [fold]	other results
Isotype control (antibody)						Total Binding at 4° C. (RFU) [1]: 186000 RFU; Total Binding at 37° C. (RFU) [1]: 1.09e+06 RFU; Total Internalized RFU [2]: 1.7e+06 RFU
mIgG1 isotype control (antibody)	16	7	-4			
mIgG Isotype Control (antibody)				1	1	

Second part, led by results:

% Blocking [3] [%]	% Blocking [4] [%]	% Blocking [5] [%]	ratio of binding signal (RLU) to isotype control [6] [fold]	ratio of binding signal (RLU) to isotype control [7] [fold]	Substance	other results
3	4	-8			hIgG1 isotype control (antibody)	
			1	1	hIgG1 Isotype Control (antibody)	
